For one assay, the target named is recombinant human PAD4 (human, UniProt Q9UM07 1-663). Briefly: cell-based or functional assay.
The next assay concerns the target recombinant human PAD2 (human, UniProt Q9Y2J8 1-665). Nature of the assay: cell-based or functional assay.

Numbered stars: 1 amine (or outer) side, 2 acyl side, 3 side chain; on linkers, the order of the positions; unused ones are H or OH. Square brackets hold non-standard residues; d marks the D form. Orn(CA) = ornithine chloroamidine, O(CA), N=C(CCl)NCCC[C@H](N[*:1])C(=O)[*:2]; Orn(fluoroacetimidoyl) = N=C(CF)NCCC[C@H](N)C(=O)O

Sequence of recombinant human PAD2 (Q9Y2J8 whole entry): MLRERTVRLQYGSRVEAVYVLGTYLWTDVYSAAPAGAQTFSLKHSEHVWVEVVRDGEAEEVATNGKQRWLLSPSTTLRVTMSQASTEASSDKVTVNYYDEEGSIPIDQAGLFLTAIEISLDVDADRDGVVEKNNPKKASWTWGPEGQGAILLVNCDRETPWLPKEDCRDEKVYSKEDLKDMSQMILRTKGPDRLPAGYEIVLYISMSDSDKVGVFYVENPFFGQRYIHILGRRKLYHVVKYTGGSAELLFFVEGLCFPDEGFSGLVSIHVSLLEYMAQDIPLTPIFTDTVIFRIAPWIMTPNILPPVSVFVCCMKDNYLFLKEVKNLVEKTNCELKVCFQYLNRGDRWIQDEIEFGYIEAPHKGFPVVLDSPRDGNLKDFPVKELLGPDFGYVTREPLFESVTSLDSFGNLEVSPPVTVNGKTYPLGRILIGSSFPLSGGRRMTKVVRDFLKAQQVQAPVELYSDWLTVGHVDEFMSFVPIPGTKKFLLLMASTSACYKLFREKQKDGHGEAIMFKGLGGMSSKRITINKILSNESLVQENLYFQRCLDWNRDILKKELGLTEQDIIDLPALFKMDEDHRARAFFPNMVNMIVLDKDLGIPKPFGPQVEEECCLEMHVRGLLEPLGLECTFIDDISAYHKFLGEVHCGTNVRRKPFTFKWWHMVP
Sequence of recombinant human PAD4 (Q9UM07 whole entry): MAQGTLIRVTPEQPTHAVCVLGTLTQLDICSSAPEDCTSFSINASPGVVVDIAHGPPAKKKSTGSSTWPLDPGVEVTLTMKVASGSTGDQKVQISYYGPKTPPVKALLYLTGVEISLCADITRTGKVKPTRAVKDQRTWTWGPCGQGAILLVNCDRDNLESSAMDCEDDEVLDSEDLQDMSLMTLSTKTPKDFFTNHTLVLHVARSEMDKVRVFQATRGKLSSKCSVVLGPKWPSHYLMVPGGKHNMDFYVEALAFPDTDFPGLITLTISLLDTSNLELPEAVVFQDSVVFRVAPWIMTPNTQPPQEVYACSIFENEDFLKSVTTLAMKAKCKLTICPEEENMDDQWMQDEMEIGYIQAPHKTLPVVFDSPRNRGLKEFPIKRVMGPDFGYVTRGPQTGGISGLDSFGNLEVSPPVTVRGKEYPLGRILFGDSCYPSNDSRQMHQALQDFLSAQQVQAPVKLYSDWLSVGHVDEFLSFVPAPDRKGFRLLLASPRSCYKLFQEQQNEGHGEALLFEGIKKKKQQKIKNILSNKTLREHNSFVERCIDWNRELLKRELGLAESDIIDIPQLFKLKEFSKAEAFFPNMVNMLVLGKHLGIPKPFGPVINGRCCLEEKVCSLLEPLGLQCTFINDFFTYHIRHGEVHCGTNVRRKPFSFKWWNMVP

B1: 0741-05FA (peptide)
peptide: Ac-DSHKFD[Orn(fluoroacetimidoyl)]DFIYSD-NH2
SMILES: CC[C@H](C)[C@H](NC(=O)[C@H](Cc1ccccc1)NC(=O)[C@H](CC(=O)O)NC(=O)[C@H](CCCNC(=N)CF)NC(=O)[C@H](CC(=O)O)NC(=O)[C@H](Cc1ccccc1)NC(=O)[C@H](CCCCN)NC(=O)[C@H](Cc1c[nH]cn1)NC(=O)[C@H](CO)NC(=O)[C@H](CC(=O)O)NC(C)=O)C(=O)N[C@@H](Cc1ccc(O)cc1)C(=O)N[C@@H](CO)C(=O)N[C@@H](CC(=O)O)C(N)=O
Consider B1, for which, in the assay with recombinant human PAD4, the “conversion of 0708-30 by PAD4, 10 µM inhibitor” value was 55%; the “conversion of 0708-30 by PAD4, 50 µM inhibitor” value came to 22%; the “conversion of 0708-30 by PAD4, 100 µM inhibitor” value worked out at 14%. Besides, in the assay with recombinant human PAD2, the “conversion of 0708-30 by PAD2, 10 µM inhibitor” value turned out to be 54%; the “conversion of 0708-30 by PAD2, 50 µM inhibitor” value was 24%; the “conversion of 0708-30 by PAD2, 100 µM inhibitor” value was determined as 15%.

B2: 0741-04FA (peptide)
peptide: Ac-FFDSHKLH[Orn(fluoroacetimidoyl)]EWMWSD-NH2
SMILES: CSCC[C@H](NC(=O)[C@H](Cc1c[nH]c2ccccc12)NC(=O)[C@H](CCC(=O)O)NC(=O)[C@H](CCCNC(=N)CF)NC(=O)[C@H](Cc1c[nH]cn1)NC(=O)[C@H](CC(C)C)NC(=O)[C@H](CCCCN)NC(=O)[C@H](Cc1c[nH]cn1)NC(=O)[C@H](CO)NC(=O)[C@H](CC(=O)O)NC(=O)[C@H](Cc1ccccc1)NC(=O)[C@H](Cc1ccccc1)NC(C)=O)C(=O)N[C@@H](Cc1c[nH]c2ccccc12)C(=O)N[C@@H](CO)C(=O)N[C@@H](CC(=O)O)C(N)=O
Regarding B2, in the assay with recombinant human PAD4, the “conversion of 0708-30 by PAD4, 10 µM inhibitor” value was found to be 64%; the “conversion of 0708-30 by PAD4, 50 µM inhibitor” value amounted to 28%; the “conversion of 0708-30 by PAD4, 100 µM inhibitor” value amounted to 14%. Moreover, in the assay with recombinant human PAD2, the “conversion of 0708-30 by PAD2, 10 µM inhibitor” value amounted to 62%; the “conversion of 0708-30 by PAD2, 50 µM inhibitor” value was 24%; the “conversion of 0708-30 by PAD2, 100 µM inhibitor” value came out at 14%.

B3: 0741-03CA (peptide)
peptide: Ac-FFDSHKFD[Orn(CA)]DFIYSD-NH2
SMILES: CC[C@H](C)[C@H](NC(=O)[C@H](Cc1ccccc1)NC(=O)[C@H](CC(=O)O)NC(=O)[C@H](CCCNC(=N)CCl)NC(=O)[C@H](CC(=O)O)NC(=O)[C@H](Cc1ccccc1)NC(=O)[C@H](CCCCN)NC(=O)[C@H](Cc1c[nH]cn1)NC(=O)[C@H](CO)NC(=O)[C@H](CC(=O)O)NC(=O)[C@H](Cc1ccccc1)NC(=O)[C@H](Cc1ccccc1)NC(C)=O)C(=O)N[C@@H](Cc1ccc(O)cc1)C(=O)N[C@@H](CO)C(=O)N[C@@H](CC(=O)O)C(N)=O
In the case of B3, in the assay with recombinant human PAD4, the “conversion of 0708-30 by PAD4, 10 µM inhibitor” value was determined as 62%; the “conversion of 0708-30 by PAD4, 50 µM inhibitor” value came out at 24%; the “conversion of 0708-30 by PAD4, 100 µM inhibitor” value was 14%. For the same molecule, in the assay with recombinant human PAD2, the “conversion of 0708-30 by PAD2, 10 µM inhibitor” value was 57%; the “conversion of 0708-30 by PAD2, 50 µM inhibitor” value was determined as 49%; the “conversion of 0708-30 by PAD2, 100 µM inhibitor” value is 23%.

B4: 0741-05CA (peptide)
peptide: Ac-DSHKFD[Orn(CA)]DFIYSD-NH2
SMILES: CC[C@H](C)[C@H](NC(=O)[C@H](Cc1ccccc1)NC(=O)[C@H](CC(=O)O)NC(=O)[C@H](CCCNC(=N)CCl)NC(=O)[C@H](CC(=O)O)NC(=O)[C@H](Cc1ccccc1)NC(=O)[C@H](CCCCN)NC(=O)[C@H](Cc1c[nH]cn1)NC(=O)[C@H](CO)NC(=O)[C@H](CC(=O)O)NC(C)=O)C(=O)N[C@@H](Cc1ccc(O)cc1)C(=O)N[C@@H](CO)C(=O)N[C@@H](CC(=O)O)C(N)=O
B4: in the assay with recombinant human PAD4, the “conversion of 0708-30 by PAD4, 10 µM inhibitor” value worked out at 74%; the “conversion of 0708-30 by PAD4, 50 µM inhibitor” value is 34%; the “conversion of 0708-30 by PAD4, 100 µM inhibitor” value was determined as 25%. In the assay with recombinant human PAD2, the “conversion of 0708-30 by PAD2, 10 µM inhibitor” value was 62%; the “conversion of 0708-30 by PAD2, 50 µM inhibitor” value is 44%; the “conversion of 0708-30 by PAD2, 100 µM inhibitor” value turned out to be 31%.

B5: 0741-04CA (peptide)
peptide: Ac-FFDSHKLH[Orn(CA)]EWMWSD-NH2
SMILES: CSCC[C@H](NC(=O)[C@H](Cc1c[nH]c2ccccc12)NC(=O)[C@H](CCC(=O)O)NC(=O)[C@H](CCCNC(=N)CCl)NC(=O)[C@H](Cc1c[nH]cn1)NC(=O)[C@H](CC(C)C)NC(=O)[C@H](CCCCN)NC(=O)[C@H](Cc1c[nH]cn1)NC(=O)[C@H](CO)NC(=O)[C@H](CC(=O)O)NC(=O)[C@H](Cc1ccccc1)NC(=O)[C@H](Cc1ccccc1)NC(C)=O)C(=O)N[C@@H](Cc1c[nH]c2ccccc12)C(=O)N[C@@H](CO)C(=O)N[C@@H](CC(=O)O)C(N)=O
As for B5, in the assay with recombinant human PAD4, the “conversion of 0708-30 by PAD4, 10 µM inhibitor” value amounted to 68%; the “conversion of 0708-30 by PAD4, 50 µM inhibitor” value amounted to 55%; the “conversion of 0708-30 by PAD4, 100 µM inhibitor” value worked out at 26%. Further, in the assay with recombinant human PAD2, the “conversion of 0708-30 by PAD2, 10 µM inhibitor” value turned out to be 69%; the “conversion of 0708-30 by PAD2, 50 µM inhibitor” value amounted to 47%; the “conversion of 0708-30 by PAD2, 100 µM inhibitor” value worked out at 50%.

B6: 0741-01FA (peptide)
peptide: Ac-FFDSKHFD[Orn(fluoroacetimidoyl)]EWIWSD-NH2
SMILES: CC[C@H](C)[C@H](NC(=O)[C@H](Cc1c[nH]c2ccccc12)NC(=O)[C@H](CCC(=O)O)NC(=O)[C@H](CCCNC(=N)CF)NC(=O)[C@H](CC(=O)O)NC(=O)[C@H](Cc1ccccc1)NC(=O)[C@H](Cc1c[nH]cn1)NC(=O)[C@H](CCCCN)NC(=O)[C@H](CO)NC(=O)[C@H](CC(=O)O)NC(=O)[C@H](Cc1ccccc1)NC(=O)[C@H](Cc1ccccc1)NC(C)=O)C(=O)N[C@@H](Cc1c[nH]c2ccccc12)C(=O)N[C@@H](CO)C(=O)N[C@@H](CC(=O)O)C(N)=O
Consider B6, for which, in the assay with recombinant human PAD4, the “conversion of 0708-30 by PAD4, 10 µM inhibitor” value was 63%; the “conversion of 0708-30 by PAD4, 50 µM inhibitor” value stood at 24%; the “conversion of 0708-30 by PAD4, 100 µM inhibitor” value stood at 15%. In the assay with recombinant human PAD2, the “conversion of 0708-30 by PAD2, 10 µM inhibitor” value amounted to 69%; the “conversion of 0708-30 by PAD2, 50 µM inhibitor” value was found to be 29%; the “conversion of 0708-30 by PAD2, 100 µM inhibitor” value came to 14%.

B7: 0741-06FA (peptide)
peptide: Ac-DSKKHD[Orn(fluoroacetimidoyl)]DFLYSD-NH2
SMILES: CC(=O)N[C@@H](CC(=O)O)C(=O)N[C@@H](CO)C(=O)N[C@@H](CCCCN)C(=O)N[C@@H](CCCCN)C(=O)N[C@@H](Cc1c[nH]cn1)C(=O)N[C@@H](CC(=O)O)C(=O)N[C@@H](CCCNC(=N)CF)C(=O)N[C@@H](CC(=O)O)C(=O)N[C@@H](Cc1ccccc1)C(=O)N[C@@H](CC(C)C)C(=O)N[C@@H](Cc1ccc(O)cc1)C(=O)N[C@@H](CO)C(=O)N[C@@H](CC(=O)O)C(N)=O
For the molecule B7, in the assay with recombinant human PAD4, the “conversion of 0708-30 by PAD4, 10 µM inhibitor” value turned out to be 74%; the “conversion of 0708-30 by PAD4, 50 µM inhibitor” value was 43%; the “conversion of 0708-30 by PAD4, 100 µM inhibitor” value worked out at 27%. In the assay with recombinant human PAD2, the “conversion of 0708-30 by PAD2, 10 µM inhibitor” value was 73%; the “conversion of 0708-30 by PAD2, 50 µM inhibitor” value came to 42%; the “conversion of 0708-30 by PAD2, 100 µM inhibitor” value was 25%.

B8: 0741-02CA (peptide)
peptide: Ac-FFDSHKWH[Orn(CA)]DFFYSD-NH2
SMILES: CC(=O)N[C@@H](Cc1ccccc1)C(=O)N[C@@H](Cc1ccccc1)C(=O)N[C@@H](CC(=O)O)C(=O)N[C@@H](CO)C(=O)N[C@@H](Cc1c[nH]cn1)C(=O)N[C@@H](CCCCN)C(=O)N[C@@H](Cc1c[nH]c2ccccc12)C(=O)N[C@@H](Cc1c[nH]cn1)C(=O)N[C@@H](CCCNC(=N)CCl)C(=O)N[C@@H](CC(=O)O)C(=O)N[C@@H](Cc1ccccc1)C(=O)N[C@@H](Cc1ccccc1)C(=O)N[C@@H](Cc1ccc(O)cc1)C(=O)N[C@@H](CO)C(=O)N[C@@H](CC(=O)O)C(N)=O
Take B8: in the assay with recombinant human PAD4, the “conversion of 0708-30 by PAD4, 10 µM inhibitor” value came to 63%; the “conversion of 0708-30 by PAD4, 50 µM inhibitor” value amounted to 31%; the “conversion of 0708-30 by PAD4, 100 µM inhibitor” value was determined as 19%. In the assay with recombinant human PAD2, the “conversion of 0708-30 by PAD2, 10 µM inhibitor” value amounted to 67%; the “conversion of 0708-30 by PAD2, 50 µM inhibitor” value turned out to be 32%; the “conversion of 0708-30 by PAD2, 100 µM inhibitor” value worked out at 18%.

B9: 0741-01CA (peptide)
peptide: Ac-FFDSKHFD[Orn(CA)]EWIWSD-NH2
SMILES: CC[C@H](C)[C@H](NC(=O)[C@H](Cc1c[nH]c2ccccc12)NC(=O)[C@H](CCC(=O)O)NC(=O)[C@H](CCCNC(=N)CCl)NC(=O)[C@H](CC(=O)O)NC(=O)[C@H](Cc1ccccc1)NC(=O)[C@H](Cc1c[nH]cn1)NC(=O)[C@H](CCCCN)NC(=O)[C@H](CO)NC(=O)[C@H](CC(=O)O)NC(=O)[C@H](Cc1ccccc1)NC(=O)[C@H](Cc1ccccc1)NC(C)=O)C(=O)N[C@@H](Cc1c[nH]c2ccccc12)C(=O)N[C@@H](CO)C(=O)N[C@@H](CC(=O)O)C(N)=O
For the molecule B9, in the assay with recombinant human PAD4, the “conversion of 0708-30 by PAD4, 10 µM inhibitor” value amounted to 63%; the “conversion of 0708-30 by PAD4, 50 µM inhibitor” value was 31%; the “conversion of 0708-30 by PAD4, 100 µM inhibitor” value worked out at 17%. In addition, in the assay with recombinant human PAD2, the “conversion of 0708-30 by PAD2, 10 µM inhibitor” value stood at 69%; the “conversion of 0708-30 by PAD2, 50 µM inhibitor” value was determined as 38%; the “conversion of 0708-30 by PAD2, 100 µM inhibitor” value came to 23%.

B10: 0741-06CA (peptide)
peptide: Ac-DSKKHD[Orn(CA)]DFLYSD-NH2
SMILES: CC(=O)N[C@@H](CC(=O)O)C(=O)N[C@@H](CO)C(=O)N[C@@H](CCCCN)C(=O)N[C@@H](CCCCN)C(=O)N[C@@H](Cc1c[nH]cn1)C(=O)N[C@@H](CC(=O)O)C(=O)N[C@@H](CCCNC(=N)CCl)C(=O)N[C@@H](CC(=O)O)C(=O)N[C@@H](Cc1ccccc1)C(=O)N[C@@H](CC(C)C)C(=O)N[C@@H](Cc1ccc(O)cc1)C(=O)N[C@@H](CO)C(=O)N[C@@H](CC(=O)O)C(N)=O
As for B10, in the assay with recombinant human PAD4, the “conversion of 0708-30 by PAD4, 10 µM inhibitor” value was 74%; the “conversion of 0708-30 by PAD4, 50 µM inhibitor” value amounted to 64%; the “conversion of 0708-30 by PAD4, 100 µM inhibitor” value was 50%. Moreover, in the assay with recombinant human PAD2, the “conversion of 0708-30 by PAD2, 10 µM inhibitor” value was 63%; the “conversion of 0708-30 by PAD2, 50 µM inhibitor” value turned out to be 45%; the “conversion of 0708-30 by PAD2, 100 µM inhibitor” value stood at 48%.

The record behind these values is patent US20110142868A1 (CHIRALIX B V, published 2011).
